We go through 1 molecule from patent publication US10428140B2, “Anti-EphA4 antibody” (EISAI R&D MANAGEMENT CO., LTD., priority 2015, dated 2019).

For test [1], the target named is T1, mouse EphA4 (binding to mouse Ephrin A1) (Mus musculus, UniProt Q03137).
T1 construct: made in house; host or cells: HEK293EBNA cells
The test is described as follows: Mouse EphA4-mouse ligand binding inhibition ELISA (Ephrin A1-Fc). The settings on record: mouse EphA4-mouse ligand binding inhibition. The protocol:
Antibody A obtained in Example 1 was evaluated for its inhibitory activity against the binding between mouse EphA4 and its mouse ligand according to the following steps. Each well of a 96-well plate (Nunc) was coated with an anti-alkaline phosphatase antibody (Thermo Fisher Scientific). After incubation overnight at 4° C., each well was blocked with 1% BlockAce (DS Pharma Biomedical) at room temperature for 1 hour. After washing with 0.05% Tween 20/PBS (Thermo Fisher Scientific) three times, the mouse EphA4 extracellular region-SEAP-His protein obtained by the method of Example 1 was added (final concentration: 10 nM) to each well and incubated at room temperature for 1 hour. After washing three times, ligands and serially diluted antibody A (0, 0.001, 0.003, 0.01, 0.03, 0.1, 0.3, 1,3, 10, 30, 100, 300, and 1000 nM) or a known EphA4 inhibitor KYL peptide (KYLPYWPVLSSL, 0, 0.003, 0.01, 0.03, 0.1, 0.3, 1, 3, 10, 30, and 100 μM, its synthesis was outsourced to Hokkaido System Science) or compound 1 (0, 0.03, 0.1, 0.3, 1,3, 10, 30, 100, 300, and 1000 μM, Formula 1, Matrix Scientific) were added to each well. The ligands used were mouse Ephrin A1-Fc chimera (R&D Systems, final concentration: 20 nM) and mouse Ephrin B2-Fc chimera (R&D Systems, final concentration: 0.6 nM). […] The absorbance at 450 nm was read using a microplate reader (Molecular Devices).

The test system of test [2] is mouse Eph receptor (EphA1-A8, A10, EphB1-B4, B6). The test is described as follows: Selectivity ELISA for mouse Eph receptor family. In kind it is binding. The settings on record: antibody 10 μg/mL. The text has this: According to the method described in Example 1, a DNA sequence encoding the signal sequence and the extracellular region of each mouse Eph receptor (EphA1, EphA3, EphA4, EphA5, EphA6, EphA7, EphA8, EphA10, EphB1, EphB2, EphB3, EphB4, and EphB6) was amplified by RT-PCR using tissue-derived total RNA and cloned into a pENTR1A vector (Invitrogen/Life Technologies) having a DNA sequence encoding a human IgG1 Fc region and histidine tag. Next, the DNA sequence encoding the signal sequence and the extracellular region of each mouse Eph receptor (EphA1, EphA3, EphA4, EphA5, EphA6, EphA7, EphA8, EphA10, EphB1, EphB2, EphB3, EphB4, and EphB6), Fc, and histidine tag was transferred to a pcDNA3.1_rfcB vector through LR reaction using Gateway System (Invitrogen/Life Technologies) to construct each mouse Eph receptor extracellular region-Fc-His protein expression vector. […]
Antibody A was evaluated for its binding activity against each mouse Eph receptor according to the following steps.
Each well of a 96-well plate (Nunc) was coated with a donkey anti-human IgG antibody (Jackson ImmunoResearch Laboratories). […] The absorbance at 450 nm was read using a microplate reader (PerkinElmer).

Some results are limits rather than exact numbers.

T1 sequence (Q03137 with tags, fused parts or gaps): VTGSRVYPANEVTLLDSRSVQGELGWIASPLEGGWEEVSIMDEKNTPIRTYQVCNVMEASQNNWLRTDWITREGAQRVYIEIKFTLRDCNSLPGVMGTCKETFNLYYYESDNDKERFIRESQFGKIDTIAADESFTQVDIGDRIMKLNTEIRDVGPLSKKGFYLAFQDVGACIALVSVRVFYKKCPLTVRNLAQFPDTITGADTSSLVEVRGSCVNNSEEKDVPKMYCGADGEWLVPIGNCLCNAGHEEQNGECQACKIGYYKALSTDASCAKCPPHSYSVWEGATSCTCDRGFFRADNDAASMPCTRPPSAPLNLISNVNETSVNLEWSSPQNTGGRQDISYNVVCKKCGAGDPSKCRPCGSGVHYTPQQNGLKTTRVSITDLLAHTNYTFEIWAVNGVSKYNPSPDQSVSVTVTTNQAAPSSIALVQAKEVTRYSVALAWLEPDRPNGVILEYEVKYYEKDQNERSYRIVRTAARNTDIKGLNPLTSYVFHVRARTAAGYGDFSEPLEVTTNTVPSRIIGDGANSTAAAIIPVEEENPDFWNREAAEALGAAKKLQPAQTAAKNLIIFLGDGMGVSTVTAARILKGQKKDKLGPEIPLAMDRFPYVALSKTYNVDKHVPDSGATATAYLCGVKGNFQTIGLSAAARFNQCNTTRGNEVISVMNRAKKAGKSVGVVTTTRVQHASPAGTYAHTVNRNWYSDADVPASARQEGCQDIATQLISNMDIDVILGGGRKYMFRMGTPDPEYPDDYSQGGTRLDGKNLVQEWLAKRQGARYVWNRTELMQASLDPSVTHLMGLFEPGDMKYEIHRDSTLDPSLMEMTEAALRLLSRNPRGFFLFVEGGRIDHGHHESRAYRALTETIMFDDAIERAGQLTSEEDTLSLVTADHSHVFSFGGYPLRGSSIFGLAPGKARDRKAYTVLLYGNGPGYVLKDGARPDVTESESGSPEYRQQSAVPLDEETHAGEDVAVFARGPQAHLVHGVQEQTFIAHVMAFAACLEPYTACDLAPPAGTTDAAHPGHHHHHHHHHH

B1: antibody A: mouse anti-EphA4 monoclonal antibody, IgG1/κ; heavy chain variable region SEQ ID NO: 11, light chain variable region SEQ ID NO: 13 (antibody, listed as Mus musculus, V domains shown)
VH: QIQLVQSGPELKKPGETVKISCKASGYTFTDYSMHWVKQAPGKGLKWMGWINTETGEPTYADDFKGRFAFSLETSASTAYLQINNLKNEDTATYFCARIPLYYYGSRYWYFDVWGAGTTVTVSS
VL: DIQMTQSPASLSVSVGETVTITCRASENIYRNLAWYQQKQGKSPQLLVYAATNLADGVPSRFSGSGSGTQYSLKINSLQSEDFGSYYCQHFWGTPWTFGGGTKLEIK
In the case of B1, the “activity relative to KYL peptide (times stronger)” value in test [1] is given as ≥ 1,000 times. The “binding specificity among mouse Eph receptor family (in words)” value in test [2] is given as “specifically had reaction activity only with mouse EphA4”.
